Patent EP4782464A1 (Nanjing Legend Biotech Co., Ltd., dated 2026)

T1: mouse GCC (guanylyl cyclase C, GUCY2C) on cells (mouse, UniProt Q3UWA6 20-1072)
T1 construct: whole, on cells; also called Dubca-mouse GCC.Luc
T1 sequence (looked up): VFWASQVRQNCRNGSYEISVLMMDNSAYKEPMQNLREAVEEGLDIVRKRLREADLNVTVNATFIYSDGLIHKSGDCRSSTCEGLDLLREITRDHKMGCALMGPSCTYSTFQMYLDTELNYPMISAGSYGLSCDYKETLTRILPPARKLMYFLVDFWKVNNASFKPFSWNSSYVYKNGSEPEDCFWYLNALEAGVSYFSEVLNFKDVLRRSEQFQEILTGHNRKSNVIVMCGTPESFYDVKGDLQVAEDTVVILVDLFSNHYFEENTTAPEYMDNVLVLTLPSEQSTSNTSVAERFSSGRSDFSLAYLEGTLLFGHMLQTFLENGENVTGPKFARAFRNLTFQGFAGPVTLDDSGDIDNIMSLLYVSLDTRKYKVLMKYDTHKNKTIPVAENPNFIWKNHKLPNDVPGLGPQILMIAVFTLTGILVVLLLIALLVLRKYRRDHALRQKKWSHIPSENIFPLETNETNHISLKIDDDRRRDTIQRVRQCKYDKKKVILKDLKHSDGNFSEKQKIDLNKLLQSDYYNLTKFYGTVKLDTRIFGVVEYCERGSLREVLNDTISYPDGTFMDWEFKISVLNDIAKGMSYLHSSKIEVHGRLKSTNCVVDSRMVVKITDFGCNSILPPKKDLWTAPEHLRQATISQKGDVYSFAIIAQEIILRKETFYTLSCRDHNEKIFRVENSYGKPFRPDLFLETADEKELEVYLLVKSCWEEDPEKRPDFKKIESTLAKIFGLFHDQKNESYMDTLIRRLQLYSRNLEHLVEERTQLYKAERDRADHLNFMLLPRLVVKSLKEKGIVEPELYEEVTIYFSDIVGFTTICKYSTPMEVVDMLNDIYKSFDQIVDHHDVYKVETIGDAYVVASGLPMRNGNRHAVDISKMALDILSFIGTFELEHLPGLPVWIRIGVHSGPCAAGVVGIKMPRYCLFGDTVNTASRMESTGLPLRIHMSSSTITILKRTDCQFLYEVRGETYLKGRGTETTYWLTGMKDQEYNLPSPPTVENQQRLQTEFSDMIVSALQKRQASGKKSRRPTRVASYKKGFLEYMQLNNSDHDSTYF

T2: His-tagged mouse GUCY2C/guanylyl cyclase C protein (ACRO GUC-M52H3) (mouse, UniProt Q3UWA6 20-433, limits assumed)
T2 construct: Bought protein; also called mouse GCC-his protein; mouse GCC-his; not shown: His tag
T2 sequence (looked up): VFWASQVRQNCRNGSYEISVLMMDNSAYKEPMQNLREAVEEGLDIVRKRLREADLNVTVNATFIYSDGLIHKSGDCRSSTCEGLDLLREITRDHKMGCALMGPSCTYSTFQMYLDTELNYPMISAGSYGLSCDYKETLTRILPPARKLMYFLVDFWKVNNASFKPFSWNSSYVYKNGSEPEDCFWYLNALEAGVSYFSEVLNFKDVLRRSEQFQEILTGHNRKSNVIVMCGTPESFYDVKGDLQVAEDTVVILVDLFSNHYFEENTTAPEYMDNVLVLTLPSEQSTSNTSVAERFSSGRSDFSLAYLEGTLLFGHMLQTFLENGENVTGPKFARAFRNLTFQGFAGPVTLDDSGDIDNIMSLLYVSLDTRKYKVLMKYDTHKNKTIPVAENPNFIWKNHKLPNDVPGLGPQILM


What was measured:
[1] = target: T3, human GCC (guanylyl cyclase C, GUCY2C) on cells (human, UniProt P25092 24-1073); assay: flow cytometry, B cell clone supernatant on Dubca-human GCC.Luc cells
T3 construct: whole, on cells; also called Dubca-human GCC.Luc

[2] = target: mouse GCC (guanylyl cyclase C, GUCY2C) on cells (mouse) (UniProt Q3UWA6); assay: flow cytometry, B cell clone supernatant on Dubca-mouse GCC.Luc cells
[3] = target: human GCC (guanylyl cyclase C, GUCY2C) on cells (human) (UniProt P25092); assay: flow cytometry, B cell clone supernatant on Dubca-human GCC.Luc cells
[4] = target: T1, mouse GCC (guanylyl cyclase C, GUCY2C) …; assay: flow cytometry on 293T-mouse GCC.Luc cells
[5] = target: T4, His-tagged human GUCY2C/Guanylyl cyclase C protein (ACRO GUC-H52H5) (human, UniProt P25092 24-430); assay: ELISA, plate coated with human GCC-his protein at 1 µg/mL
T4 construct: Bought protein; also called human GCC-his protein; human GCC-his; not shown: His tag

[6] = target: T2, His-tagged mouse GUCY2C/guanylyl …; assay: ELISA, plate coated with mouse GCC-his protein at 1 µg/mL
[7] = target: T3, human GCC (guanylyl cyclase C, GUCY2C) …; assay: flow cytometry on 293T-human GCC.Luc cells

Chain of human GCC (guanylyl cyclase C, GUCY2C) on cells (human) (P25092 24-1073): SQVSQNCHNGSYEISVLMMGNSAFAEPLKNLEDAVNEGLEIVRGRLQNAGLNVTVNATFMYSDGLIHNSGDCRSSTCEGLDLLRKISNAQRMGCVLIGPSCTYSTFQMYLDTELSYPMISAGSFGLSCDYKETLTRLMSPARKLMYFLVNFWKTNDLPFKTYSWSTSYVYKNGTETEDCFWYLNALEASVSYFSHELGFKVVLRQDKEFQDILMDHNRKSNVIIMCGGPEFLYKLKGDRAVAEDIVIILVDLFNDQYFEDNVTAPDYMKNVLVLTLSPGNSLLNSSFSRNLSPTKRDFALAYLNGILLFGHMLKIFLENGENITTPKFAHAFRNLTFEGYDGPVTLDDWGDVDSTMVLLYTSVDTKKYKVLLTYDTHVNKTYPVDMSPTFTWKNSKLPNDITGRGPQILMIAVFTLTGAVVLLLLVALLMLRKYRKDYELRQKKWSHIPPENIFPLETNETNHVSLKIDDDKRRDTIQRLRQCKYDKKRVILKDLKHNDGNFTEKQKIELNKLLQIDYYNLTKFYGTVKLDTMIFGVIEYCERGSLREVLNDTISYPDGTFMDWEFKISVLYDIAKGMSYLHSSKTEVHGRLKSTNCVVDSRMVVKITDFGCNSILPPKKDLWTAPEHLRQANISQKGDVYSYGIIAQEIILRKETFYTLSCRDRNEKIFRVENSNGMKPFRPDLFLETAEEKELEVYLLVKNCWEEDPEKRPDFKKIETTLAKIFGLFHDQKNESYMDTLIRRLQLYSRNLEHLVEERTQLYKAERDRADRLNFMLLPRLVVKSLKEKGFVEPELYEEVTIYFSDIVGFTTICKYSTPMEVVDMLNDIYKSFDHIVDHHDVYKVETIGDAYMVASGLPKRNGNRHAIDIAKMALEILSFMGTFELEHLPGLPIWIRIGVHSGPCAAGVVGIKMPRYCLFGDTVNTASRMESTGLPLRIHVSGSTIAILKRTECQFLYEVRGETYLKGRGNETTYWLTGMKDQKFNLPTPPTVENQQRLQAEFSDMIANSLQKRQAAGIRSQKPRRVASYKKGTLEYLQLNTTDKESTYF
T3 sequence (P25092 24-1073): as above
T4 sequence (P25092 24-430 limits assumed): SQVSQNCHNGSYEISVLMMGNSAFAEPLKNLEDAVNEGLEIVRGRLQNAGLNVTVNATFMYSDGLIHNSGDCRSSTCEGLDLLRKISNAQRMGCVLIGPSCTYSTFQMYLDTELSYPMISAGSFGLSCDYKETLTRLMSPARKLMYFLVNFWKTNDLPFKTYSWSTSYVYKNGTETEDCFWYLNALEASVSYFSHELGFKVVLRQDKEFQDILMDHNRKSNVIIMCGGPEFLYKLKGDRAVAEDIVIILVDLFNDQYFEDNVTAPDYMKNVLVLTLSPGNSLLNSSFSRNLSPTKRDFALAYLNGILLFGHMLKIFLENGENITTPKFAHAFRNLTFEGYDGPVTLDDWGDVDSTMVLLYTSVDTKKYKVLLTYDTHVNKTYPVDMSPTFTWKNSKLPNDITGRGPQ

Row | Binder | binding result [1] | percent of cells bound (flow cytometry) [2] | percent of cells bound (flow cytometry) [3] | EC50 [4] | EC50 [5] | EC50 [6] | EC50 [7]
1 | 21E1 (anti-GCC rabbit monoclonal antibody, B cell clone supernatant) (antibody, V domains shown) VH: QSLEESGGRLVTPGTPLTLTCTVSGIDLSSYDMTWVRQAPGKGLEWIGSIGDDGNTYYATWAKGRFTISKTSTTVHLKMTSLTTEDTATYFCARGWSFCKSWGQGTLVTVSS VL: AQVLTQTASPVSAAVGGTVTISCQSSQSVANNNLAWYQQKPGQPPSPLIYKASTLESGVPSRFSGSGSGTQFALTISGVQCDDAATYYCQGAYRSGIMAFGGGTEVVVR |  | 99.7% | 95.4% |  |  |  | 
2 | 22G5 (anti-GCC rabbit monoclonal antibody, B cell clone supernatant) (antibody, V domains shown) VH: QSVEESGGRLVTPGTPLTLTCTVSGIDLSSYAMTWVRQAPGEGLEWIGTINTISTAYYANWAKGRFTISKTSTTVDLKIASPTTEDTATYFCARDHGYYDVWGQGTLVTVSS VL: AQVLTQTPSSVSAAVGGTVTINCQASQSVYKNNYLSWYQQKPGQPPRLLIYDASTLASGVPSRFKGSGSGTQFTLTISGVQCDDAATYYCLGEFSCSSGDCAAFGGGTEVVVK |  | 74.1% | 99.9% |  |  |  | 
3 | 22G5-Rabbit IgG (antibody, V domains shown, Recombinant rabbit IgG (IgG1k) expressed in HD CHO-S cells: 22G5 VH-Rabbit IgG CH1-CH2-CH3 and 22G5 VL-Rabbit IgG CL; also called 22G5-Rabbit IgG antibody; 22G5 antibody) VH: QSVEESGGRLVTPGTPLTLTCTVSGIDLSSYAMTWVRQAPGEGLEWIGTINTISTAYYANWAKGRFTISKTSTTVDLKIASPTTEDTATYFCARDHGYYDVWGQGTLVTVSS VL: AQVLTQTPSSVSAAVGGTVTINCQASQSVYKNNYLSWYQQKPGQPPRLLIYDASTLASGVPSRFKGSGSGTQFTLTISGVQCDDAATYYCLGEFSCSSGDCAAFGGGTEVVVKG |  |  |  | 1.23 nM | 0.619 nM | 0.824 nM | 0.102 nM

Now from value to binder:

Row | binding result [1] | percent of cells bound (flow cytometry) [2] | percent of cells bound (flow cytometry) [3] | EC50 [4] | EC50 [5] | EC50 [6] | EC50 [7] | Binder
4 | no binding | 99.2% |  |  |  |  |  | 14C2 (anti-GCC rabbit monoclonal antibody, B cell clone supernatant) (antibody, V domains shown, Tested as native rabbit antibody in B cell clone supernatant; also called 14C2-B cells; clone 14C2) VH: QSLEESGGRLVTPGTPLTLTCTASGFSLSNYDMSWVRQAPGKGLEWIGTIEPDGSTWYASWAKGRLTISRTSTTVDLKMTSLTTEDTATYFCVRGAPDYSSNAFNLWGQGTLVTVSS VL: DVVMTQTPSSVSEPVGGTVTIKCQASQSISSYLAWYQQKPGQPPKLLIYKASTLASGVSSQFRGSGSGTEFTLTISDLECADAATYYCQSTYAASNKLHFAFGGGTDVVVK
5 |  | 95.4% | 95.1% |  |  |  |  | 25E2 (anti-GCC rabbit monoclonal antibody, B cell clone supernatant) (antibody, V domains shown) VH: QSVEESGGRLVTPGTPLTLTCTVSGIDLNKHAMGWVRQAPTKGLEWIGTIYVSTNTAYASWAKGRFTISKTSSTTVDLKMTSLTTEDTATYFCARGGGSSYYTGELYFNLWGQGTLVTVSS VL: AYDMTQTPASVEVAVGGTVSIKCQVSQSIGSWLAWYQQKPGQPPKLLIYSASTLASGVSSRFKGSGSGTEFTLTISDLACVDAATYYCQSYSSASTTAFGGGTEVVVR
6 |  |  |  | 0.284 nM | 0.671 nM | 0.899 nM | 0.0254 nM | PF0098-Rabbit IgG (antibody, V domains shown, also called PF0098-Rabbit IgG antibody) VH: QVQLQQPGAELVKPGASVKLSCKASGYTFTSYWMHWVKQRPGQGLEWIGEIKPSNGLTNYIEKFKNKATLTVDKSATTAYMQLSSLTAEDSAVYYCTRTITTTEGYWFFDVWGAGTTVTVSS VL: DIVLTQSPASLAVSLGQRATISCRASESVDYYGTSLMQWYQQKPGQPPKLLIYAASNVESGVPARFSGSGSGTDFSLNIHPVEEDDIAMYFCQQTRKVYTFGGGTKLEIKG
7 |  | 81.8% | 65.9% |  |  |  |  | 48D5 (anti-GCC rabbit monoclonal antibody, B cell clone supernatant) (antibody, V domains shown) VH: QSLEESGGRLVKPDETLTITCTVSGIDLSSNAISWVRQAPGEGLEYIGYIGTGGKSFYATWTKGRFTISKTSTTVDLKMTSLTNEDTAMYFCATGNTYLDLWGQGTLVTVSS VL: AQVLTQTPSSVSAAVGGTVTINCQSSQSVYGADYLAWYQQKPGQPPKLLIYRASNLASGVPSRFRGSGSGTQFTLTISEVQCDDAATYYCQGTYISSDWLNPFGGGTEVVVK
